From US20180086841A1
Values belong to the substance of their own block, whether it stands above or below them.

Columns and labels:
D32A [1] = experiment: flow cytometry on CHO-K1 transfectants, right sub-column, cell hatched (loss of binding)
Q15A [2] = experiment: as above
K17A [3] = experiment: as above
D32A [4] = experiment: flow cytometry on CHO-K1 transfectants, left sub-column, cell hatched (loss of binding)
Q15A [5] = experiment: as above
K17A [6] = experiment: as above
V49A [7] = experiment: flow cytometry on CHO-K1 transfectants, left sub-column
Sequence of V49A (receptor chain, as listed by the source V49A V49A limits assumed): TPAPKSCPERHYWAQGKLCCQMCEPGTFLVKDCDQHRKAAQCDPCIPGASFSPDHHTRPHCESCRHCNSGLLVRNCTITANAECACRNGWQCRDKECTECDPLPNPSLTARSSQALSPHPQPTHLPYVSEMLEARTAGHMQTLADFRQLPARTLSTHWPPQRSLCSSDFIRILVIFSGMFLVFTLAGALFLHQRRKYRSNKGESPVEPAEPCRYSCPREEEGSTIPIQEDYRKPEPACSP

R37A [8] = experiment: as above
S63A [9] = experiment: as above
Sequence of S63A (receptor chain, as listed by the source S63A S63A limits assumed): as the sequence (receptor chain, as listed by the source V49A V49A limits assumed) above, with A49V, S63A counted along it

G16A [10] = experiment: as above
K38A [11] = experiment: as above
Sequence of K38A (receptor chain, as listed by the source K38A K38A limits assumed): as the sequence (receptor chain, as listed by the source V49A V49A limits assumed) above, with K38A, A49V counted along it

R10A [12] = experiment: as above
Sequence of R10A (receptor chain, as listed by the source R10A R10A limits assumed): as the sequence (receptor chain, as listed by the source V49A V49A limits assumed) above, with R10A, A49V counted along it

W90A [13] = experiment: as above
Sequence of W90A (receptor chain, as listed by the source W90A W90A limits assumed): as the sequence (receptor chain, as listed by the source V49A V49A limits assumed) above, with A49V, W90A counted along it

R87A [14] = experiment: as above
Sequence of R87A (receptor chain, as listed by the source R87A R87A limits assumed): as the sequence (receptor chain, as listed by the source V49A V49A limits assumed) above, with A49V, R87A counted along it

G89A [15] = experiment: as above
D43A [16] = experiment: as above
H60A [17] = experiment: as above
F28A [18] = experiment: as above
H36A [19] = experiment: as above
Sequence of H36A (receptor chain, as listed by the source H36A H36A limits assumed): as the sequence (receptor chain, as listed by the source V49A V49A limits assumed) above, with H36A, A49V counted along it

P8A [20] = experiment: as above
Sequence of P8A (receptor chain, as listed by the source limits assumed): as the sequence (receptor chain, as listed by the source V49A V49A limits assumed) above, with P8A, A49V counted along it

I46A [21] = experiment: as above
Sequence of I46A (receptor chain, as listed by the source I46A I46A limits assumed): as the sequence (receptor chain, as listed by the source V49A V49A limits assumed) above, with I46A, A49V counted along it

V30A [22] = experiment: as above
Sequence of V30A (receptor chain, as listed by the source V30A V30A limits assumed): as the sequence (receptor chain, as listed by the source V49A V49A limits assumed) above, with V30A, A49V counted along it

K31A [23] = experiment: as above
Sequence of K31A (receptor chain, as listed by the source K31A K31A limits assumed): as the sequence (receptor chain, as listed by the source V49A V49A limits assumed) above, with K31A, A49V counted along it

E9A [24] = experiment: as above
W13A [25] = experiment: as above
Sequence of W13A (receptor chain, as listed by the source W13A W13A limits assumed): as the sequence (receptor chain, as listed by the source V49A V49A limits assumed) above, with W13A, A49V counted along it

Q41A [26] = experiment: as above
Sequence of Q41A (receptor chain, as listed by the source Q41A Q41A limits assumed): as the sequence (receptor chain, as listed by the source V49A V49A limits assumed) above, with Q41A, A49V counted along it

P44A [27] = experiment: as above
Sequence of P44A (receptor chain, as listed by the source P44A P44A limits assumed): as the sequence (receptor chain, as listed by the source V49A V49A limits assumed) above, with P44A, A49V counted along it

N88A [28] = experiment: as above
Sequence of N88A (receptor chain, as listed by the source N88A N88A limits assumed): as the sequence (receptor chain, as listed by the source V49A V49A limits assumed) above, with A49V, N88A counted along it

Q91A [29] = experiment: as above
R93A [30] = experiment: as above
Sequence of R93A (receptor chain, as listed by the source R93A R93A limits assumed): as the sequence (receptor chain, as listed by the source V49A V49A limits assumed) above, with A49V, R93A counted along it

V49A [31] = experiment: flow cytometry on CHO-K1 transfectants, right sub-column
R37A [32] = experiment: as above
S63A [33] = experiment: as above
G16A [34] = experiment: as above
K38A [35] = experiment: as above
R10A [36] = experiment: as above
W90A [37] = experiment: as above
R87A [38] = experiment: as above
G89A [39] = experiment: as above
D43A [40] = experiment: as above
H60A [41] = experiment: as above
F28A [42] = experiment: as above
H36A [43] = experiment: as above
P8A [44] = experiment: as above
I46A [45] = experiment: as above
V30A [46] = experiment: as above
K31A [47] = experiment: as above
E9A [48] = experiment: as above
W13A [49] = experiment: as above
Q41A [50] = experiment: as above
P44A [51] = experiment: as above
N88A [52] = experiment: as above
Q91A [53] = experiment: as above
R93A [54] = experiment: as above
R37A [55] = experiment: flow cytometry on CHO-K1 transfectants, right sub-column, cell hatched (loss of binding)
K38A [56] = experiment: as above
R37A [57] = experiment: flow cytometry on CHO-K1 transfectants, left sub-column, cell hatched (loss of binding)
K38A [58] = experiment: as above
D32A [59] = experiment: flow cytometry on CHO-K1 transfectants, left sub-column
Q15A [60] = experiment: as above
K17A [61] = experiment: as above
D32A [62] = experiment: flow cytometry on CHO-K1 transfectants, right sub-column
Q15A [63] = experiment: as above
K17A [64] = experiment: as above
human CD27 (human) [65] = target: human CD27 (human) (UniProt P26842); experiment: flow cytometry on CHO-K1 cells transfected with CD27 (empty vector: + 5.32)
[66] = target: human CD27 (A59T) (human) (UniProt P26842); experiment: flow cytometry on CHO-K1 cells transfected with CD27 A59T (empty vector: + 5.32)
[67] = target: human CD27 (A59T) (human) (UniProt P26842); experiment: flow cytometry on CHO-K1 cells transfected with CD27 A59T (empty vector: GM FITC 212)
human CD27 (human) [68] = target: human CD27 (human) (UniProt P26842); experiment: flow cytometry on CHO-K1 cells transfected with CD27 (empty vector: GM FITC 212)

Sequence of K17A (receptor chain, as listed by the source K17A K17A limits assumed): as the sequence (receptor chain, as listed by the source V49A V49A limits assumed) above, with K17A, A49V counted along it
Sequence of D32A (receptor chain, as listed by the source D32A D32A limits assumed): as the sequence (receptor chain, as listed by the source V49A V49A limits assumed) above, with D32A, A49V counted along it
Sequence of Fc-mCD70 (O55237 45-195): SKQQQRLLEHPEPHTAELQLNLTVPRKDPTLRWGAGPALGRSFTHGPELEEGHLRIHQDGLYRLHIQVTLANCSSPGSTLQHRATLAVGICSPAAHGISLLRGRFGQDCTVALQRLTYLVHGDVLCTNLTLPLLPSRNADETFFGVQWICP
Sequence of Q15A (receptor chain, as listed by the source Q15A Q15A limits assumed): as the sequence (receptor chain, as listed by the source V49A V49A limits assumed) above, with Q15A, A49V counted along it

binding, WT hCD27 = 100 (GM FITC) (D32A [1]): 8.7%
binding, WT hCD27 = 100 (GM FITC) (Q15A [2]): 7.6%
binding, WT hCD27 = 100 (GM FITC) (K17A [3]): 6.8%
binding, WT hCD27 = 100 (GM FITC) (D32A [4]): 43.7%
binding, WT hCD27 = 100 (GM FITC) (Q15A [5]): 32%
binding, WT hCD27 = 100 (GM FITC) (K17A [6]): 32.4%
binding, WT hCD27 = 100 (GM FITC) (V49A [7]): 144%
binding, WT hCD27 = 100 (GM FITC) (R37A [8]): 115%
binding, WT hCD27 = 100 (GM FITC) (S63A [9]): 158%
binding, WT hCD27 = 100 (GM FITC) (G16A [10]): 90.8%
binding, WT hCD27 = 100 (GM FITC) (K38A [11]): 104%
binding, WT hCD27 = 100 (GM FITC) (R10A [12]): 107%
binding, WT hCD27 = 100 (GM FITC) (W90A [13]): 123%
binding, WT hCD27 = 100 (GM FITC) (R87A [14]): 143%
binding, WT hCD27 = 100 (GM FITC) (G89A [15]): 100%
binding, WT hCD27 = 100 (GM FITC) (D43A [16]): 195%
binding, WT hCD27 = 100 (GM FITC) (H60A [17]): 167%
binding, WT hCD27 = 100 (GM FITC) (F28A [18]): 113%
binding, WT hCD27 = 100 (GM FITC) (H36A [19]): 111%
binding, WT hCD27 = 100 (GM FITC) (P8A [20]): 84.5%
binding, WT hCD27 = 100 (GM FITC) (I46A [21]): 129%
binding, WT hCD27 = 100 (GM FITC) (V30A [22]): 161%
binding, WT hCD27 = 100 (GM FITC) (K31A [23]): 194%
binding, WT hCD27 = 100 (GM FITC) (E9A [24]): 98.2%
binding, WT hCD27 = 100 (GM FITC) (W13A [25]): 89.1%
binding, WT hCD27 = 100 (GM FITC) (Q41A [26]): 106%
binding, WT hCD27 = 100 (GM FITC) (P44A [27]): 146%
binding, WT hCD27 = 100 (GM FITC) (N88A [28]): 154%
binding, WT hCD27 = 100 (GM FITC) (Q91A [29]): 146%
binding, WT hCD27 = 100 (GM FITC) (R93A [30]): 120%
binding, WT hCD27 = 100 (GM FITC) (V49A [31]): 97%
binding, WT hCD27 = 100 (GM FITC) (R37A [32]): 87%
binding, WT hCD27 = 100 (GM FITC) (S63A [33]): 163%
binding, WT hCD27 = 100 (GM FITC) (G16A [34]): 97.3%
binding, WT hCD27 = 100 (GM FITC) (K38A [35]): 97.7%
binding, WT hCD27 = 100 (GM FITC) (R10A [36]): 113%
binding, WT hCD27 = 100 (GM FITC) (W90A [37]): 96.4%
binding, WT hCD27 = 100 (GM FITC) (R87A [38]): 108%
binding, WT hCD27 = 100 (GM FITC) (G89A [39]): 81.8%
binding, WT hCD27 = 100 (GM FITC) (D43A [40]): 93.4%
binding, WT hCD27 = 100 (GM FITC) (H60A [41]): 120%
binding, WT hCD27 = 100 (GM FITC) (F28A [42]): 60%
binding, WT hCD27 = 100 (GM FITC) (H36A [43]): 85.2%
binding, WT hCD27 = 100 (GM FITC) (P8A [44]): 79.1%
binding, WT hCD27 = 100 (GM FITC) (I46A [45]): 82.7%
binding, WT hCD27 = 100 (GM FITC) (V30A [46]): 102%
binding, WT hCD27 = 100 (GM FITC) (K31A [47]): 138%
binding, WT hCD27 = 100 (GM FITC) (E9A [48]): 122%
binding, WT hCD27 = 100 (GM FITC) (W13A [49]): 93.4%
binding, WT hCD27 = 100 (GM FITC) (Q41A [50]): 76.1%
binding, WT hCD27 = 100 (GM FITC) (P44A [51]): 90.5%
binding, WT hCD27 = 100 (GM FITC) (N88A [52]): 116%
binding, WT hCD27 = 100 (GM FITC) (Q91A [53]): 120%
binding, WT hCD27 = 100 (GM FITC) (R93A [54]): 91.1%
Substance: 1A4 (mouse IgG1) (antibody)

binding, WT hCD27 = 100 (GM FITC) (R37A [55]): 6.2%
binding, WT hCD27 = 100 (GM FITC) (K38A [56]): 31.6%
binding, WT hCD27 = 100 (GM FITC) (R37A [57]): 35%
binding, WT hCD27 = 100 (GM FITC) (K38A [58]): 44.7%
binding, WT hCD27 = 100 (GM FITC) (V49A [7]): 151%
binding, WT hCD27 = 100 (GM FITC) (S63A [9]): 153%
binding, WT hCD27 = 100 (GM FITC) (G16A [10]): 94.7%
binding, WT hCD27 = 100 (GM FITC) (R10A [12]): 104%
binding, WT hCD27 = 100 (GM FITC) (W90A [13]): 130%
binding, WT hCD27 = 100 (GM FITC) (R87A [14]): 153%
binding, WT hCD27 = 100 (GM FITC) (G89A [15]): 116%
binding, WT hCD27 = 100 (GM FITC) (D43A [16]): 201%
binding, WT hCD27 = 100 (GM FITC) (H60A [17]): 185%
binding, WT hCD27 = 100 (GM FITC) (D32A [59]): 118%
binding, WT hCD27 = 100 (GM FITC) (F28A [18]): 115%
binding, WT hCD27 = 100 (GM FITC) (H36A [19]): 88.5%
binding, WT hCD27 = 100 (GM FITC) (P8A [20]): 68.5%
binding, WT hCD27 = 100 (GM FITC) (I46A [21]): 137%
binding, WT hCD27 = 100 (GM FITC) (V30A [22]): 166%
binding, WT hCD27 = 100 (GM FITC) (Q15A [60]): 107%
binding, WT hCD27 = 100 (GM FITC) (K31A [23]): 207%
binding, WT hCD27 = 100 (GM FITC) (E9A [24]): 96.6%
binding, WT hCD27 = 100 (GM FITC) (W13A [25]): 90.7%
binding, WT hCD27 = 100 (GM FITC) (K17A [61]): 98%
binding, WT hCD27 = 100 (GM FITC) (Q41A [26]): 113%
binding, WT hCD27 = 100 (GM FITC) (P44A [27]): 159%
binding, WT hCD27 = 100 (GM FITC) (N88A [28]): 153%
binding, WT hCD27 = 100 (GM FITC) (Q91A [29]): 149%
binding, WT hCD27 = 100 (GM FITC) (R93A [30]): 122%
binding, WT hCD27 = 100 (GM FITC) (V49A [31]): 92.1%
binding, WT hCD27 = 100 (GM FITC) (S63A [33]): 149%
binding, WT hCD27 = 100 (GM FITC) (G16A [34]): 102%
binding, WT hCD27 = 100 (GM FITC) (R10A [36]): 99%
binding, WT hCD27 = 100 (GM FITC) (W90A [37]): 85.7%
binding, WT hCD27 = 100 (GM FITC) (R87A [38]): 98.8%
binding, WT hCD27 = 100 (GM FITC) (G89A [39]): 77.5%
binding, WT hCD27 = 100 (GM FITC) (D43A [40]): 92.5%
binding, WT hCD27 = 100 (GM FITC) (H60A [41]): 126%
binding, WT hCD27 = 100 (GM FITC) (D32A [62]): 66.3%
binding, WT hCD27 = 100 (GM FITC) (F28A [42]): 58.2%
binding, WT hCD27 = 100 (GM FITC) (H36A [43]): 66.5%
binding, WT hCD27 = 100 (GM FITC) (P8A [44]): 62.2%
binding, WT hCD27 = 100 (GM FITC) (I46A [45]): 82.7%
binding, WT hCD27 = 100 (GM FITC) (V30A [46]): 95.6%
binding, WT hCD27 = 100 (GM FITC) (Q15A [63]): 118%
binding, WT hCD27 = 100 (GM FITC) (K31A [47]): 133%
binding, WT hCD27 = 100 (GM FITC) (E9A [48]): 109%
binding, WT hCD27 = 100 (GM FITC) (W13A [49]): 86.5%
binding, WT hCD27 = 100 (GM FITC) (K17A [64]): 106%
binding, WT hCD27 = 100 (GM FITC) (Q41A [50]): 71.3%
binding, WT hCD27 = 100 (GM FITC) (P44A [51]): 91.7%
binding, WT hCD27 = 100 (GM FITC) (N88A [52]): 104%
binding, WT hCD27 = 100 (GM FITC) (Q91A [53]): 111%
binding, WT hCD27 = 100 (GM FITC) (R93A [54]): 91.1%
Substance: 9F4 (mouse IgG2a) (antibody)

cells in the + gate (human CD27 (human) [65]): 58.9
cells in the + gate [66]: 52.5
GM FITC [67]: 1060
GM FITC (human CD27 (human) [68]): 1280
Substance: Fc-mCD70 (from UniProt O55237 45-195) (Fc fusion)
